Positions count from the first letter of the chain named. Starred links: 1 amine or outer side, 2 acyl side, 3 side chain; linkers in the order of their positions; H or OH if unused. Non-standard residues stand in square brackets, D forms with d. Groups on a side chain read outwards from the residue. No end group written: not given here. *: point of attachment. C20 diacid = O=C(O)CCCCCCCCCCCCCCCCCCC(=O)*; Phe(4-CN) = N#Cc1ccc(C[C@H](N)C(=O)O)cc1; αMePhe(2-F) = C[C@](N)(Cc1ccccc1F)C(=O)O; γGlu = O=C(O)[C@H](CCC(=O)[*:2])N[*:1]; AEEA = NCCOCCOCC(=O)O; Aib = CC(C)(N)C(=O)O
B1: Example 35 (peptide)
chain: YXQGTFTSDFSKXLDKKAQXAFIEYLLEGGPSSGEPPPEEG
modifications: not fully specified; Aib, αMeL; acylated Lys; C-terminal amide; synthetic construct; SITE 2: note = 2-Aminoisobutyric Acid; SITE 13: note = alpha-methyl-leucine; SITE 17: note = Lysine is chemically modified through conjugation of the epsilon-amino group of the Lysine side chain with (2-[2-(2-Amino-ethoxy)-ethoxy]-acetyl)-(gamma-Glu)-CO-(CH2) 18-CO2H; SITE 20: n
B2: Example 382 (peptide)
chain: YXQGTFTSDYXIXLDKKAQXAFIEYLIEGGPSSGAPPPS
modifications: synthetic construct; SITE 2: note = 2-Aminoisobutyric Acid; SITE 11: note = alpha-methyl-L-serine; SITE 13: note = alpha-methyl-leucine; SITE 17: note = Lysine is chemically modified through conjugation of the epsilon-amino group of the Lysine side chain with (2-[2-(2-Amino-ethoxy)-ethoxy]-acetyl)2-
B3: Example 385 (peptide)
chain: B2 chain with F6X, X11S, X13L, I27L
modifications: not fully specified; synthetic construct; SITE 2: note = 2-Aminoisobutyric Acid; SITE 6: note = alpha-methyl-2-fluoro-L-phenylalanine; SITE 17: note = Lysine is chemically modified through conjugation of the epsilon-amino group of the Lysine side chain with (2-[2-(2-Amino-ethoxy)-ethoxy]-acetyl)2-(gamma-Glu)-CO-(CH2 )18
B4: Example 387 (peptide)
chain: B2 chain with F6X, X11S, X13L, I27E
modifications: not fully specified; synthetic construct; SITE 2: note = 2-Aminoisobutyric Acid; SITE 6: note = alpha-methyl-2-fluoro-L-phenylalanine; SITE 17: note = Lysine is chemically modified through conjugation of the epsilon-amino group of the Lysine side chain with (2-[2-(2-Amino-ethoxy)-ethoxy]-acetyl)-(gamma-Glu)-CO-(CH2) 16-
B5: Example 392 (peptide)
chain: B2 chain with F6X, X11S, X13L, I27E
modifications: synthetic construct; SITE 2: note = 2-Aminoisobutyric Acid; SITE 6: note = alpha-methyl-L-phenylalanine; SITE 17: note = Lysine is chemically modified through conjugation of the epsilon-amino group of the Lysine side chain with (2-[2-(2-Amino-ethoxy)-ethoxy]-acetyl)-(gamma-Glu)-CO-(CH2) 16-CO2H; SIT
B6: Example 386 (peptide)
chain: YXQGTXTSDYSILLDKKAQXAFIEYLLEGGPSSGAPPPE
modifications: not fully specified; synthetic construct; SITE 2: note = 2-Aminoisobutyric Acid; SITE 6: note = alpha-methyl-2-fluoro-L-phenylalanine; SITE 17: note = Lysine is chemically modified through conjugation of the epsilon-amino group of the Lysine side chain with (2-[2-(2-Amino-ethoxy)-ethoxy]-acetyl)2-(gamma-Glu)-CO-(CH2 )18
B7: Example 388 (peptide)
chain: B6 chain with L27E
modifications: not fully specified; synthetic construct; SITE 2: note = 2-Aminoisobutyric Acid; SITE 6: note = alpha-methyl-2-fluoro-L-phenylalanine; SITE 17: note = Lysine is chemically modified through conjugation of the epsilon-amino group of the Lysine side chain with (2-[2-(2-Amino-ethoxy)-ethoxy]-acetyl)-(gamma-Glu)-CO-(CH2) 16-

Target: T1, human GIP receptor (human) (UniProt P48546)
T1 sequence (looked up): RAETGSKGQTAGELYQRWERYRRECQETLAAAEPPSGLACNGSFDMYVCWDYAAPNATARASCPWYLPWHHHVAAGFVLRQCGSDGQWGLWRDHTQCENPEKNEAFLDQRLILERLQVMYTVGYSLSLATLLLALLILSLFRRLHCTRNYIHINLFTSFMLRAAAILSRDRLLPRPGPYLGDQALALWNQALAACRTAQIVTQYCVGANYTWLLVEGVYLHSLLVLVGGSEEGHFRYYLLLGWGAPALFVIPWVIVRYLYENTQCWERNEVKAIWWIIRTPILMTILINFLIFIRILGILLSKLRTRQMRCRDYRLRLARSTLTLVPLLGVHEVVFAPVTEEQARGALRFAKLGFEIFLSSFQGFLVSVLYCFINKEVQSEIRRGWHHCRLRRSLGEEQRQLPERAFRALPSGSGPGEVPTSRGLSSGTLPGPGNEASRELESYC
Assay: cell-based or functional assay

Row | Binder | Relative cAMP EC50 [nM] | cAMP Rel EC50 (in the presence of 1% HSA) [nM] | cAMP Rel EC50, nM (1% HSA) [nM]
1 | B1 | 0.55 | 194 | 
2 | B2 | 0.0368 |  | 17.7
3 | B3 | 0.0141 |  | 4.03
4 | B4 | 0.0276 |  | 5.64
5 | B5 | 0.0571 |  | 28.7
6 | Y[Aib]QGT[αMePhe(2-F)]TSD[Phe(4-CN)]SKLLDKIAQK([AEEA-γGlu-C20 diacid])AFIEYLIEGGPSSGAPPPSGS-NH2 [Example 363] | 0.375 |  | 91.8
7 | B6 | 0.0156 |  | 5.62
8 | B7 | 0.0462 |  | 14.1
9 | Y[Aib]QGT[αMePhe(2-F)]TSDYSKLLDKIAQKAFIEYLIEGGPSSGAPPPSGE-NH2 (not fully specified (residue 20)) [Example 356] | 0.0613 |  | 19.2
10 | Y[Aib]QGT[αMePhe(2-F)]TSDYSKLLDKIAQKAFIEYLIEGGPSSGAPPPEGE-NH2 (not fully specified (residue 20)) [Example 357] | 0.077 |  | 42.9
11 | Y[Aib]QGT[αMePhe(2-F)]TSDYSKILDKIAQKAFIEYLIEGGPSSGAPPPSEG-NH2 (not fully specified (residue 20)) [Example 355] | 0.0811 |  | 33.2
12 | Y[Aib]QGT[αMePhe(2-F)]TSD[Phe(4-CN)]SKLLDKIAQK([AEEA-γGlu-C20 diacid])AFIEYLIEGGPSSGEPPPSGS-NH2 [Example 364] | 0.457 |  | 101
13 | Y[Aib]QGT[αMePhe(2-F)]TSDYSKILDKIAQKAFIQYLIEGGPSSGEPPPSEG-NH2 (not fully specified (residue 20)) [Example 354] | 0.134 |  | 23.8

Target: human glucagon receptor (human) (UniProt P47871)
Sequence (P47871 26-477): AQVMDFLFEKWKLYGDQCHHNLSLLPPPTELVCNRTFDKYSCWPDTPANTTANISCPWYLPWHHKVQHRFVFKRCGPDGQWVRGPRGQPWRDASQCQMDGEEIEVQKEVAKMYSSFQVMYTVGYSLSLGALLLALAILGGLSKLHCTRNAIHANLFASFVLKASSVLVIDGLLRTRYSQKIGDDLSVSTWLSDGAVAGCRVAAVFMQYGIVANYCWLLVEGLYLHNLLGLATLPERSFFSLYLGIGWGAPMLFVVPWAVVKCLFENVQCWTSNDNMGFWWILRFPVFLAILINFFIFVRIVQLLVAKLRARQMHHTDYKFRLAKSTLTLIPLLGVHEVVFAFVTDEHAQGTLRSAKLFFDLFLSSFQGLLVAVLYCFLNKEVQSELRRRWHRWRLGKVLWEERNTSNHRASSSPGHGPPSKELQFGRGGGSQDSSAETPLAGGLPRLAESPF
Assay: cell-based or functional assay

Row | Binder | Relative cAMP EC50 [nM] | cAMP Rel EC50 (in the presence of 1% HSA) [nM] | cAMP Rel EC50, nM (1% HSA) [nM]
14 | B1 | 4.32 | 1390 | 
15 | B2 | 3.72 |  | 1050
16 | B3 | 1 |  | 700
17 | B4 | 2.14 |  | 184
18 | B5 | 3.02 |  | 611
19 | Y[Aib]QGT[αMePhe(2-F)]TSD[Phe(4-CN)]SKLLDKIAQK([AEEA-γGlu-C20 diacid])AFIEYLIEGGPSSGAPPPSGS-NH2 [Example 363] | 13.6 |  | 4080
20 | B6 | 1.7 |  | 734
21 | B7 | 2.15 |  | 603
22 | Y[Aib]QGT[αMePhe(2-F)]TSDYSKLLDKIAQKAFIEYLIEGGPSSGAPPPSGE-NH2 (not fully specified (residue 20)) [Example 356] | 4.76 |  | 2680
23 | Y[Aib]QGT[αMePhe(2-F)]TSDYSKLLDKIAQKAFIEYLIEGGPSSGAPPPEGE-NH2 (not fully specified (residue 20)) [Example 357] | 6.21 |  | 1810
24 | Y[Aib]QGT[αMePhe(2-F)]TSDYSKILDKIAQKAFIEYLIEGGPSSGAPPPSEG-NH2 (not fully specified (residue 20)) [Example 355] | 5.87 |  | 3430
25 | Y[Aib]QGT[αMePhe(2-F)]TSD[Phe(4-CN)]SKLLDKIAQK([AEEA-γGlu-C20 diacid])AFIEYLIEGGPSSGEPPPSGS-NH2 [Example 364] | 10.2 |  | 3190
26 | Y[Aib]QGT[αMePhe(2-F)]TSDYSKILDKIAQKAFIQYLIEGGPSSGEPPPSEG-NH2 (not fully specified (residue 20)) [Example 354] | 7.91 |  | 1440

Target: hGLP-1R (Homo sapiens, UniProt P43220)
Sequence (P43220 24-463): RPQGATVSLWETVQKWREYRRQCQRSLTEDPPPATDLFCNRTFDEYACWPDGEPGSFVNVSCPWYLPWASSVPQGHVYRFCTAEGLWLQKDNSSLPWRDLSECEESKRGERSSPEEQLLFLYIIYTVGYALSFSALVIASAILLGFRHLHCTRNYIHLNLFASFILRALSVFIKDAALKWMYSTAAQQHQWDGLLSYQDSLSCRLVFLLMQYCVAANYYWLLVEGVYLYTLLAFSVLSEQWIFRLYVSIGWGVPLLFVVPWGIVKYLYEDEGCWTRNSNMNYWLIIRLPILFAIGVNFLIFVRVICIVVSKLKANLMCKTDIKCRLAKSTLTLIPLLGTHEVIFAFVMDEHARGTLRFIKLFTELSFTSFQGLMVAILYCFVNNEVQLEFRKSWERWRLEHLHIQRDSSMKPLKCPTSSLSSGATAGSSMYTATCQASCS
Assay: cell-based or functional assay

Row | Binder | Relative cAMP EC50 [nM] | cAMP Rel EC50 (in the presence of 1% HSA) [nM] | cAMP Rel EC50, nM (1% HSA) [nM]
27 | B1 | 3.05 | 1130 | 
28 | B2 | 0.291 |  | 61.5
29 | B3 | 0.235 |  | 86.1
30 | B4 | 0.255 |  | 26.5
31 | B5 | 0.253 |  | 41.5
32 | Y[Aib]QGT[αMePhe(2-F)]TSD[Phe(4-CN)]SKLLDKIAQK([AEEA-γGlu-C20 diacid])AFIEYLIEGGPSSGAPPPSGS-NH2 [Example 363] | 1.47 |  | 217
33 | B6 | 0.278 |  | 98.6
34 | B7 | 0.373 |  | 52.5
35 | Y[Aib]QGT[αMePhe(2-F)]TSDYSKLLDKIAQKAFIEYLIEGGPSSGAPPPSGE-NH2 (not fully specified (residue 20)) [Example 356] | 0.599 |  | 206
36 | Y[Aib]QGT[αMePhe(2-F)]TSDYSKLLDKIAQKAFIEYLIEGGPSSGAPPPEGE-NH2 (not fully specified (residue 20)) [Example 357] | 0.625 |  | 248
37 | Y[Aib]QGT[αMePhe(2-F)]TSDYSKILDKIAQKAFIEYLIEGGPSSGAPPPSEG-NH2 (not fully specified (residue 20)) [Example 355] | 1.01 |  | 351
38 | Y[Aib]QGT[αMePhe(2-F)]TSD[Phe(4-CN)]SKLLDKIAQK([AEEA-γGlu-C20 diacid])AFIEYLIEGGPSSGEPPPSGS-NH2 [Example 364] | 1.1 |  | 260
39 | Y[Aib]QGT[αMePhe(2-F)]TSDYSKILDKIAQKAFIQYLIEGGPSSGEPPPSEG-NH2 (not fully specified (residue 20)) [Example 354] | 1.21 |  | 175

— patent US20240270821A1, “GIP/GLP1/GCG TRI-RECEPTOR AGONISTS AND USES THEREOF” (priority 2023, published 2024)
